Source: patent US6844171 (Harvard, dated 2005)

Tests used:
[1] = target: δ25-60(Y) peptide (regions B+C of the HDAg multimer-forming domain, with C-terminal tyrosine) (hepatitis delta virus (American strain)); assay: CD spectroscopy in PBS at 37° C.
[2] = target: δ12-49 peptide (regions A+B of the HDAg multimer-forming domain) (hepatitis delta virus (American strain)); assay: CD spectroscopy in PBS at 37° C.
[3] = target: the molecule itself; assay: glutaraldehyde cross-linking, MALDI-TOF mass spectrometry

Molecule: δ25-60(Y) peptide (regions B+C of the HDAg multimer-forming domain, with C-terminal tyrosine)
- [θ222]/[θ208] ratio (indicator of coiled-coil formation) [1]: 0.76

B1: δ12-49 peptide (regions A+B of the HDAg multimer-forming domain) (peptide)
peptide: GREDILEQWVSGRKKLEELERDLRKLKKKIKKLEEDNP
- [θ222]/[θ208] ratio (indicator of coiled-coil formation) [2]: 0.79

B2: recombinant small delta antigen (r-HDAg-S), full length, expressed in E. coli from plasmid pR5δV5 (other)
chain: SRSERRKDRGGREDILEQWVSGRKKLEELERDLRKLKKKIKKLEEDNPWLGNIKGIIGKKDKDGEGAPPAKKLRMDQMEIDAGPRKRPLRGGFTDKERQDHRRRKALENKRKQLSSGGKSLSREEEEELKRLTEEDEKRERRIAGPSVGGVNPLEGGSRGAPGGGFVPSMQGVPESPFARTGEGLDIRGSQGFP
notes: also called r-δAg-S; rδAg-S
- ratio of the masses of the cross-linked species to the monomer [3]: 8.1
